According to US7517949B2, “Livin-derived peptides, compositions and uses thereof” (Hadasit Medical Research Services & Development Ltd., priority 2003, dated 2009):
Entries after “also recorded” stand apart in the source; their conditions may differ. Residues, ends and D or L forms follow the SMILES beside them. *: point of attachment. Cbz = O=C(OCc1ccccc1)*; CH2F = FC*

B1: p30-Livin α: Livin α-derived peptide, cleavage product, C-terminal subunit of about 30 kDa with BIR and RING domains (protein, listed as Homo sapiens)
chain: GQILGQLRPLTEEEEEEGAGATLSRGPAFPGMGSEELRLASFYDWPLTAEVPPELLAAAGFFHTGHQDKVRCFFCYGGLQSWKRGDDPWTEHAKWFPSCQFLLRSKGRDFVHSVQETHSQLLGSWDPWEEPEDAAPVAPSVPASGYPELPTPRREVQSESAQEPGGVSPAEAQRAWWVLEPPGARDVEAQLRRLQEERTCKVCLDRAVSIVFVPCGHLVCAECAPGLQLCPICRAPVRSRVRTFLS
B2: Livin β: full-length Livin isoform β, IAP family member, about 37 kDa (protein, listed as Homo sapiens)
chain: MGPKDSAKCLHRGPQPSHWAAGDGPTQERCGPRSLGSPVLGLDTCRAWDHVDGQILGQLRPLTEEEEEEGAGATLSRGPAFPGMGSEELRLASFYDWPLTAEVPPELLAAAGFFHTGHQDKVRCFFCYGGLQSWKRGDDPWTEHAKWFPSCQFLLRSKGRDFVHSVQETHSQLLGSWDPWEEPEDAAPVAPSVPASGYPELPTPRREVQSESAQEPGARDVEAQLRRLQEERTCKVCLDRAVSIVFVPCGHLVCAECAPGLQLCPICRAPVRSRVRTFLS
B3: p28-Livin β: Livin β-derived peptide, cleavage product, C-terminal subunit of about 28 kDa with BIR and RING domains (protein, listed as Homo sapiens)
chain: GQILGQLRPLTEEEEEEGAGATLSRGPAFPGMGSEELRLASFYDWPLTAEVPPELLAAAGFFHTGHQDKVRCFFCYGGLQSWKRGDDPWTEHAKWFPSCQFLLRSKGRDFVHSVQETHSQLLGSWDPWEEPEDAAPVAPSVPASGYPELPTPRREVQSESAQEPGARDVEAQLRRLQEERTCKVCLDRAVSIVFVPCGHLVCAECAPGLQLCPICRAPVRSRVRTFLS
B4: Livin α: full-length Livin isoform α, IAP family member, about 39 kDa (protein, listed as Homo sapiens)
chain: MGPKDSAKCLHRGPQPSHWAAGDGPTQERCGPRSLGSPVLGLDTCRAWDHVDGQILGQLRPLTEEEEEEGAGATLSRGPAFPGMGSEELRLASFYDWPLTAEVPPELLAAAGFFHTGHQDKVRCFFCYGGLQSWKRGDDPWTEHAKWFPSCQFLLRSKGRDFVHSVQETHSQLLGSWDPWEEPEDAAPVAPSVPASGYPELPTPRREVQSESAQEPGGVSPAEAQRAWWVLEPPGARDVEAQLRRLQEERTCKVCLDRAVSIVFVPCGHLVCAECAPGLQLCPICRAPVRSRVRTFLS

What was measured:
[1] = system: Livin cleavage in Jurkat cells; assay: Livin cleavage in Jurkat cells pre-incubated with caspase inhibitors (Western blot); type: cell-based, human; settings: Jurkat cells pre-incubated with inhibitor prior to treatment
Method: FIG. […]
Whole cell lysates were prepared using lysis buffer (Tris-HCl 20 mM, EDTA 2 mM, β-2-Mercaptoethanol 6 mM, NP-40 1%, SDS 0.1%). Protease inhibitors included: PMSF 1 mM, Protease inhibitor cocktail (Sigma) diluted 1:10, and Complete inhibitor cocktail (Roche, Germany) diluted 1:25. About 0.25-1×10^6 cells were lysed in a total volume of 100 μl, incubated at 4° C. for 20 minutes with vigorous vortexing. Protein content was assessed by Bradford assay (Bio-Rad, Germany), according to the manufacturer's instructions. Samples were resolved on a 10% Bis-Tris pre-cast gel, following the manufacturer's instructions (Invitrogen, USA). After transferring the gel to a PVDF membrane (Millipore, Mass. USA), the membrane was exposed to the antibodies in blocking solution (PBS 1% Casein, 0.05% Tween 20) for 1 hour, followed by three 5-minute washes with PBS. The monoclonal antibody against Livin (clone:88C570) was purchased from Imgenex, and diluted 1:3000 in blocking solution. Survivin 6E4 monoclonal antibody was used according to the manufacturer's recommendation. […]
Cells were incubated with caspase inhibitors for 1-2 hour prior to treatment with the apoptotic stimuli. […] Caspase 9 activity was assessed using caspase-9 colorimetric substrate LEHD-pNA (Biovision, Calif., USA). […]

721.221 cells = assay: Apoptosis of stably transfected 721.221 cells after anti-CD95/Fas treatment (nuclear morphology, acridine orange); type: cell-based; settings: 0.1 μg/ml anti-CD95/Fas antibody, 18 hours, compared with wild type 721.221 cells
Method: FIG. 6a: 721.221 cells stably expressing either Livin α or […], and wild type 721.221 cells, were treated with 0.1 μg/ml anti-CD95/Fas antibody for 18 hours. Nuclear morphology was visualized using acridine orange staining and used for determining apoptosis rate.
(§1) Transfection with the pIRES2-EGFP plasmid (QIAGEN, Germany) encoding p30-Livin α or p28-Livin β, and as positive controls, the full length wild type cDNA of either Livin α or β was done either by electroporation, in 721.221 cells [Mandelboim, O. et al. (1996) J. Exp. Med., 184: 913-922], or using PolyFect (QIAGEN), in human embryonic kidney 293T cells, according to manufacturers instructions. […] Thus, cells transfected with this plasmid may be monitored for transfection by the absence or presence of the GFP signal.
(§2) Nuclear morphology was visualized using acridin orange (Sigma) staining as described [Loo, D. T. et al. (1998) Methods Cell Biol., 57: 251-264]. […] The percentage of apoptotic to viable cells was counted by fluorescence microscopy and 500 cells were scored for each sample. […] Cells transfected with a GFP-containing plasmid were analyzed using Annexin-V-Cy5 and PI staining according to the manufacturer instructions (MBL, Japan). In stably transfected cultures with a rate of GFP-positive cells higher than 95%, all cells were analyzed for apoptosis. […]

LB33 Mel A1 cells = assay: Cell death of transiently transfected LB33 Mel A1 cells (PI stain of GFP-positive cells); type: cell-based, human; settings: data not shown; for induction of apoptosis by transient transfection: in comparison to full-length counterparts or control
Method: At the indicated times post transfection cells were analyzed for GFP percent as a marker of transfection, and the GFP-positive population was further analyzed for cell death using PI stain.

293T cells = assay: Spontaneous apoptosis of transiently transfected 293T cells (Annexin V/PI flow cytometry of GFP-positive cells); type: cell-based, human; settings: 24 hours post-transfection, in comparison to full-length proteins or empty vector
Method: FIG. 6c: 293T cells were transiently transfected with the indicated plasmids. 24 hours post-transfection, cells were harvested and analyzed by flow cytometry. Apoptosis of GFP-positive cells was analyzed by Annexin-V/PI stain.
as §1, §2

Jurkat cells [2] = settings: cited from earlier work
Jurkat cells [3] = assay: Protection of Livin-expressing cells from drug-induced apoptosis; type: cell-based, human
Method: Primary cultures of melanoma cells were tested for the expression of Livin, XIAP and Survivin. XIAP and Survivin were widely expressed in most of the melanoma samples tested. On the other hand, Livin was expressed at variable levels, in 10 out of the 27 melanoma samples.
To further explore the cleavage of each isoform, retroviral infection to establish a Jurkat T-cell Leukemia/Lymphoma cell line and an EBV-transformed B cell line 721.221, expressing high, stable levels of either Livin α or β were used. […] A panel of the three drugs etoposide, staurosporine, and anti-CD95/Fas ligand was thus used to induce apoptosis in the transfected Jurkat and 721.221 cells. Similar results were observed when cells were treated with anti-CD95/Fas antibody (data not shown). The correlation between the timing of the cleavage and apoptosis rate was further investigated.

Molecule	cleavage of Livin [1]	rate of apoptosis following anti-CD95/Fas treatment (721.221 cells)	induction of apoptosis by transient transfection (LB33 Mel A1 cells)	rate of spontaneous apoptosis (293T cells)	other results
CC[C@H](C)[C@H](NC(=O)[C@H](CCC(=O)O)NC(=O)[C@@H](NC(C)=O)C(C)C)C(=O)N[C@H](C=O)CC(=O)O [caspase 6 inhibitor] (Ac-VEID-aldehyde)	not	–	–	–	–
COC(=O)C[C@H](NC(=O)[C@H](C)NC(=O)[C@@H](NC(=O)OCc1ccccc1)C(C)C)C(=O)CF [zVAD-FMK] (Cbz-Val-Ala-Asp(OMe)-CH2F)	significantly diminished the cleavage of Livin	–	–	–	–
B1	–	gained significant pro-apoptotic activity; also recorded: much higher rate of apoptosis	sufficient to induce apoptosis	significantly higher rate of spontaneous apoptosis	–
B2	–	–	–	–	inhibition of etoposide-induced apoptosis (Jurkat cells [2]; previously demonstrated by the inventors (Ashhab 2001)): inhibit etoposide-induced apoptosis; also recorded: can only block etoposide-induced apoptosis; protection against other chemotherapeutic agents (Jurkat cells [3]; Jurkat cells, Daunorubicin, Fludarabine and Cytosine arabinoside, unpublished data): protect Jurkat cells
B3	–	–	sufficient to induce apoptosis	significantly higher rate of spontaneous apoptosis	rate of apoptosis, p28-Livin β relative to p30-Livin α (LB33 Mel A1 cells; all time points tested): more potent pro-apoptotic agent than p30-Livin α; also recorded: much higher rate of apoptosis than p30-Livin α
B4	–	lower rate of apoptosis	–	–	protection against anti-CD95/Fas antibody-induced apoptosis (Jurkat cells [2]; inventors' previous work (Ashhab 2001)): able to protect from apoptosis; protection from staurosporine-induced apoptosis (Jurkat cells [3]): can protect from staurosporine-induced apoptosis
